Reference: doi:10.1101/2023.01.09.523258 (bioRxiv, 2023)

Biological target: the molecule itself
Assay: native MS

B1: Conalbumin (Ovotransferrin/OVT) from chicken egg white (natural protein, UniProt P02789 20-705, looked up)
chain: APPKSVIRWCTISSPEEKKCNNLRDLTQQERISLTCVQKATYLDCIKAIANNEADAISLDGGQAFEAGLAPYKLKPIAAEVYEHTEGSTTSYYAVAVVKKGTEFTVNDLQGKTSCHTGLGRSAGWNIPIGTLLHRGAIEWEGIESGSVEQAVAKFFSASCVPGATIEQKLCRQCKGDPKTKCARNAPYSGYSGAFHCLKDGKGDVAFVKHTTVNENAPDQKDEYELLCLDGSRQPVDNYKTCNWARVAAHAVVARDDNKVEDIWSFLSKAQSDFGVDTKSDFHLFGPPGKKDPVLKDLLFKDSAIMLKRVPSLMDSQLYLGFEYYSAIQSMRKDQLTPSPRENRIQWCAVGKDEKSKCDRWSVVSNGDVECTVVDETKDCIIKIMKGEADAVALDGGLVYTAGVCGLVPVMAERYDDESQCSKTDERPASYFAVAVARKDSNVNWNNLKGKKSCHTAVGRTAGWVIPMGLIHNRTGTCNFDEYFSEGCAPGSPPNSRLCQLCQGSGGIPPEKCVASSHEKYFGYTGALRCLVEKGDVAFIQHSTVEENTGGKNKADWAKNLQMDDFELLCTDGRRANVMDYRECNLAEVPTHAVVVRPEKANKIRDLLERQEKRFGVNGSEKSKFMMFESQNKDLLFKDLTKCLFKVREGTTYKEFLGDKFYTVISSLKTCNPSDILQMCSFLEGK
Which “stoichiometry N” value does the source give for B1 here?
Its value is 2.
